Data reported in paper PMC4210636 (Chemistry & Biology, 2014).

Experiments:
[1] = biological target: T1, ADAMTS-5 lacking the C-terminal thrombospondin domain (UniProt Q9UNA0 262-874); assay: steady-state enzyme inhibition kinetics
T1 sequence (looked up): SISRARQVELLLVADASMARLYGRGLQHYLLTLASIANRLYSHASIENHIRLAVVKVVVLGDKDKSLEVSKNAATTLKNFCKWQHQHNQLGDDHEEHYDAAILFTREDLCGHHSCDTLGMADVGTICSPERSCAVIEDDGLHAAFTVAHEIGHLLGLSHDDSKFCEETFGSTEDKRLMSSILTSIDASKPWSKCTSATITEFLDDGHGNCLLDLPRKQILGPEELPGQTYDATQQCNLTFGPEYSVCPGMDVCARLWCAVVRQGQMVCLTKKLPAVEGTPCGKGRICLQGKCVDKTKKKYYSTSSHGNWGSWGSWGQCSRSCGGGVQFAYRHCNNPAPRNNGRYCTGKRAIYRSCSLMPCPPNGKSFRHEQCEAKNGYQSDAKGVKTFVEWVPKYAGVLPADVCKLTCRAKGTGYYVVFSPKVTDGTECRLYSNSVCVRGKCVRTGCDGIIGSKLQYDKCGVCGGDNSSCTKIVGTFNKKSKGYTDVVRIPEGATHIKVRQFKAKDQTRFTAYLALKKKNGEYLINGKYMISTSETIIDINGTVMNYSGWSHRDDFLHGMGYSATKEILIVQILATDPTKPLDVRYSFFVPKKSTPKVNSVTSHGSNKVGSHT

[2] = biological target: LRP-1 ectodomain (low-density lipoprotein receptor-related protein 1) (UniProt Q07954 20-4419); assay: ELISA
Chain of LRP-1 ectodomain (low-density lipoprotein receptor-related protein 1) (Q07954 20-4419): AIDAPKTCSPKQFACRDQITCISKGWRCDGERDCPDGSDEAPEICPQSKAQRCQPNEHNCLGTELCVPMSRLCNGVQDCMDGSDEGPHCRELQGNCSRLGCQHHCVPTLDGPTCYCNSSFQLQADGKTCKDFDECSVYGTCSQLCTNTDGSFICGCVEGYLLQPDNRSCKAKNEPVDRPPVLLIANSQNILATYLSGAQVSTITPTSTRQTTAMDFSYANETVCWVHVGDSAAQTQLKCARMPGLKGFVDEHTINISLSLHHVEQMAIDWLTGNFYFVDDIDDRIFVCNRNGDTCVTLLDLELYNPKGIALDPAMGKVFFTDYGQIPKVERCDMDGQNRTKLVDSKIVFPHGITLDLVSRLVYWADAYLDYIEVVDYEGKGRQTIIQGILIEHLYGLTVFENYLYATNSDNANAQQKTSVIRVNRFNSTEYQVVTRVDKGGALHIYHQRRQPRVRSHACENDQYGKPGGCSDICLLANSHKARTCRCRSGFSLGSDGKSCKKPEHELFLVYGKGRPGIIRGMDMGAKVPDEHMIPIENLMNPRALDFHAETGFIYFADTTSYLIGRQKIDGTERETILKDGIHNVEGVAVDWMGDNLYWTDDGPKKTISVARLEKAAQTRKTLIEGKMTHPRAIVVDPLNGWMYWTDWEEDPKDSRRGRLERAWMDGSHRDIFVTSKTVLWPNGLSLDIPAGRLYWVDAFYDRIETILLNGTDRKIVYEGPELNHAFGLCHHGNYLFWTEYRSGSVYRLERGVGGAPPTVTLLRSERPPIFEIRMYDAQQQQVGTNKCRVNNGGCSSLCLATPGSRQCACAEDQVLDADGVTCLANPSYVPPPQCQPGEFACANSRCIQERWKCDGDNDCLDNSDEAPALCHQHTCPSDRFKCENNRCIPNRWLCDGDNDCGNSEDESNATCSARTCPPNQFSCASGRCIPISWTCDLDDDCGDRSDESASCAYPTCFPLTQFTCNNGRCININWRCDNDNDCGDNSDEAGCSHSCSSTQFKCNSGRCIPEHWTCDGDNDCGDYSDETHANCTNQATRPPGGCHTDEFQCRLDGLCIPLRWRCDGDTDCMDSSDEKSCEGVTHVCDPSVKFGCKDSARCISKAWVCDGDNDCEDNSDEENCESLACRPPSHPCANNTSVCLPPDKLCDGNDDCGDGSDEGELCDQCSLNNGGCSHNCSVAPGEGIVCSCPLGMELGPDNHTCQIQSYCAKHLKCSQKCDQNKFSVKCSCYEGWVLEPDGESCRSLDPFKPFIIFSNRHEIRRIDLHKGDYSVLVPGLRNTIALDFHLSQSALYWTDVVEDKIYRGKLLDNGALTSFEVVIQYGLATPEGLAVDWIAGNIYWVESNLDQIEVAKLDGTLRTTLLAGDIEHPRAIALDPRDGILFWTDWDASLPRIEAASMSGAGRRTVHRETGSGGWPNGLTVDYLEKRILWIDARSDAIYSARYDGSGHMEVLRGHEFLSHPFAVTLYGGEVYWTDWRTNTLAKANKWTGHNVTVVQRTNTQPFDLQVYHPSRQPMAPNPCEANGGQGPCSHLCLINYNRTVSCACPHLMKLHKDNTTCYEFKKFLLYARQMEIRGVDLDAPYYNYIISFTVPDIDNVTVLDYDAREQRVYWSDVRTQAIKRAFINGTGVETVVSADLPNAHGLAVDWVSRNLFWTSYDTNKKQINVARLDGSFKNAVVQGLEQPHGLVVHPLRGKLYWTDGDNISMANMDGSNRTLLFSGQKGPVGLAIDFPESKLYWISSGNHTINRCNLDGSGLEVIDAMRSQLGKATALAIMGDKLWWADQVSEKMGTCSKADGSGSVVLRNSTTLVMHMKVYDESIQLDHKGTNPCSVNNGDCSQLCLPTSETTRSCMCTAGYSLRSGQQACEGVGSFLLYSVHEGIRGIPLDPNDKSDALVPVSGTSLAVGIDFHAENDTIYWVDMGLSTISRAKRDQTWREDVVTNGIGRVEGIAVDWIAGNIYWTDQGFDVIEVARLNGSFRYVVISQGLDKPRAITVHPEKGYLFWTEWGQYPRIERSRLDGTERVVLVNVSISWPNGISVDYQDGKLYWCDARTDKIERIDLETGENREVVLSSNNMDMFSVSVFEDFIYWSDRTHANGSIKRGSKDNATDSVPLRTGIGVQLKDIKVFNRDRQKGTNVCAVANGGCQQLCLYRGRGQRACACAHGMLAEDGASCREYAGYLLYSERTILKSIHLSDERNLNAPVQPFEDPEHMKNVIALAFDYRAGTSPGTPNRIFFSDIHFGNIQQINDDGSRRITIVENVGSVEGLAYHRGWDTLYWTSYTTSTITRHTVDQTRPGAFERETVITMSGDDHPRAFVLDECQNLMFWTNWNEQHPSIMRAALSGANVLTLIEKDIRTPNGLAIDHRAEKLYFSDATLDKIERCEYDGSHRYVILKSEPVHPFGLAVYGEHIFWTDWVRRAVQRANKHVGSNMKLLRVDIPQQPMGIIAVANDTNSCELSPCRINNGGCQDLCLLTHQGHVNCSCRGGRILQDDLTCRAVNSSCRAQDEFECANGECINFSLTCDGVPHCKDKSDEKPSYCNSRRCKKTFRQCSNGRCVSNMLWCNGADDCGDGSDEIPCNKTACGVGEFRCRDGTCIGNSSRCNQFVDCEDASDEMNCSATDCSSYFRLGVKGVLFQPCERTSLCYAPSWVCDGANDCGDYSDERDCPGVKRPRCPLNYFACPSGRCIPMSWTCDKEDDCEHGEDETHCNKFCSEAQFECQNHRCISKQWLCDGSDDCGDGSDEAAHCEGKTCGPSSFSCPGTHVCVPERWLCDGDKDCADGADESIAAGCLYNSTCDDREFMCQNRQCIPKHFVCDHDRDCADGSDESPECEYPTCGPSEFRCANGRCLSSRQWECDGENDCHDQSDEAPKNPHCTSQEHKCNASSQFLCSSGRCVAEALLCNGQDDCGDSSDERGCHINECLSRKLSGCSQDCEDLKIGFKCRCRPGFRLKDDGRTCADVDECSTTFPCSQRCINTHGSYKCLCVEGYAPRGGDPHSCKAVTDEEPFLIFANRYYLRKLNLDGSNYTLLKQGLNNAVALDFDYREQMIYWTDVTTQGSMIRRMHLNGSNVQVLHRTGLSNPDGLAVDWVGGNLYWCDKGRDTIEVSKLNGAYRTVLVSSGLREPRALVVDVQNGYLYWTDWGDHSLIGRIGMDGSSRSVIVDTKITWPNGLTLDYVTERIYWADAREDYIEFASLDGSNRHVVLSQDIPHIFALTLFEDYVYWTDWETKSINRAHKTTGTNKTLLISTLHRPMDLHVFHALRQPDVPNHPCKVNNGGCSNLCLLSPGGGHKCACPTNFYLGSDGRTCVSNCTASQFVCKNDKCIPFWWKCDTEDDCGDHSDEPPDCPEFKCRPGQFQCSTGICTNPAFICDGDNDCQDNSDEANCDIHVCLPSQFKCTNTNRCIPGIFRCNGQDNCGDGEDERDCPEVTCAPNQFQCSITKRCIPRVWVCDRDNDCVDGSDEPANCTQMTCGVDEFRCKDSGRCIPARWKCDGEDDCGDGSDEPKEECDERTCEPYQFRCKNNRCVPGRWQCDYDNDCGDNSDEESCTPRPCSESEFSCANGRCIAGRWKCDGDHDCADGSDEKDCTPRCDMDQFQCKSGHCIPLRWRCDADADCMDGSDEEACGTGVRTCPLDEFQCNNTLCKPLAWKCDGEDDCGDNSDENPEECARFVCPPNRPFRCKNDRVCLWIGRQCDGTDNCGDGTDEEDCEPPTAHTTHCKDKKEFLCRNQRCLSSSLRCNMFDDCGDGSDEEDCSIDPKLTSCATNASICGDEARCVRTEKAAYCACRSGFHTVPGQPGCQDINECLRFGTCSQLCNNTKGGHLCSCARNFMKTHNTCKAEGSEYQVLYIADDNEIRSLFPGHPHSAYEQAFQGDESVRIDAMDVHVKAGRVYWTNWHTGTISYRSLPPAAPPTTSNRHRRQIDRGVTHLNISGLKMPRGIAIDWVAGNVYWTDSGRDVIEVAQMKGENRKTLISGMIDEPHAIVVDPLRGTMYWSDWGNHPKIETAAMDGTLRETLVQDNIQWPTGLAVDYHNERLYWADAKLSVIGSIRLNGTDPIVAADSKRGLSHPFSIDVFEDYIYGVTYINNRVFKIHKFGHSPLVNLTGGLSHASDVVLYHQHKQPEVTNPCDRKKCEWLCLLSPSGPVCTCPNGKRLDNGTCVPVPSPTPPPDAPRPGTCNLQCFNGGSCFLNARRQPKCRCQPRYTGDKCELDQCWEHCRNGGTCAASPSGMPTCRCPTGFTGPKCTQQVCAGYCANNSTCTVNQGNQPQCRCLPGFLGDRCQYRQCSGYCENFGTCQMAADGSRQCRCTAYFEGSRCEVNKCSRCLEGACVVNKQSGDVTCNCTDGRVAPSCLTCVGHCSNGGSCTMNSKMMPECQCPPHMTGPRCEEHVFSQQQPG

Ki [1]: 1.36 ± 0.02 nM
Kd [2]: 28 ± 6 nM
B1: C-terminally FLAG-tagged human TIMP-3 (tissue inhibitor of metalloproteinases 3) (natural protein, UniProt P35625 24-211, looked up)
chain: CTCSPSHPQDAFCNSDIVIRAKVVGKKLVKEGPFGTLVYTIKQMKMYRGFTKMPHVQYIHTEASESLCGLKLEVNKYQYLLTGRVYDGKMYTGLCNFVERWDQLTLSQRKGLNYRYHLGCNCKIKSCYYLPCFVTSKNECLWTDMLSNFGYPGYQSKHYACIRQKGGYCSWYRGWAPPDKSIINATDP
